This assay concerns the target CXL10_HUMAN (human) (UniProt P02778). Nature of the assay: cell-based or functional assay.

Chain of CXL10_HUMAN (human) (P02778 22-98 limits assumed): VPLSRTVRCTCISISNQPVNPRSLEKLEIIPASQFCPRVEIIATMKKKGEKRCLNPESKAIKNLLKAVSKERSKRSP

Regarding “EVA4_RHISA protein (from UniProt P0C8E9 24-127)”, the cell migration was 20 µM.

These data come from patent publication US20260234188A1, “CHEMOKINE-BINDING PEPTIDES” (Oxford University Innovation Limited, priority 2022, published 2026).
